Data reported in paper PMC9633773, “Discovering cell-active BCL6 inhibitors: effectively combining biochemical HTS with multiple biophysical techniques, X-ray crystallography and cell-based assays” (Scientific Reports, 2022).
Blank lines part the entries; values can stand above or below the binder they belong to. Ends that are not written are not given here.

What was measured:
Details in all cases: both partners purified
[1] = molecular target: T1, BCL6 BTB domain (BCL6 5-129, tag removed by HRV-3C protease) (human, UniProt P41182 5-129); test: thermal shift assay; 10 µM BCL6 BTB, Sypro Orange, sodium acetate pH 6, 100 mM NaCl, 0.5 mM TCEP; 200 µM BCOR control peptide
[2] = molecular target: T1, BCL6 BTB domain (BCL6 5-129, tag …); test: fluorescence polarisation; competition: 10 nM BCOR-AF633, 3 µM BCL6 BTB, unlabelled peptide varied; 20 mM Hepes/NaOH pH 8.0, 150 mM NaCl, 0.5 mM TCEP, 0.05% Tween 20, 1-2% DMSO; 2 h at room temperature
[3] = molecular target: Trx-6His-HRV3C-BCL6 (Thioredoxin-6His-tagged BCL6 BTB, uncleaved) (human, UniProt P41182 5-129); test: fluorescence polarisation; direct binding of the BCOR-AF633 probe to BCL6 BTB, FP KD (Figure S1A)
[4] = molecular target: T2, BCL6 BTB domain (BCL6 5-129, tag removed by HRV-3C protease) (human, UniProt P41182 5-129); test: as above
[5] = molecular target: T2, BCL6 BTB domain (BCL6 5-129, tag …); test: fluorescence polarisation; competition: 10 nM BCOR-AF633, 3 µM BCL6 BTB, unlabelled peptide varied; 20 mM Hepes/NaOH pH 8.0, 150 mM NaCl, 0.5 mM TCEP, 0.05% Tween 20, 1-2% DMSO; 2 h at room temperature; remark: listed apart in the source

- IC50 [2]: 13 ± 1 µM
B1: unlabelled BCOR peptide (17 residue BCOR peptide) (peptide)
chain: RSEIISTAPSSWVVPGP
modifications: Terminal capping of the unlabelled peptide is not printed. Limits come from the UniProt BCL6-interaction region 498-514, which is 17 residues and matches the printed probe RSEIISTAPSSWVVPGP without …
- ΔTm with 200 µM peptide [1]: 6.5 °C

- Kd [3]: 1.74 µM
- Kd [4]: 1.7 ± 0.3 µM
B2: Alexa Fluor 633-conjugated BCOR peptide (RSEIISTAPSSWVVPGP-Cys(AF633)-amide) (peptide)
peptide: RSEIISTAPSSWVVPGPC(Alexa Fluor 633 C5 maleimide)-NH2
notes: added C-terminal cysteine that carries the dye; also called BCOR-AF633; BCOR-A633; source: synthetic peptide, bought: Cambridge Research Biochemicals

- IC50 [5]: 16 ± 6 µM
B3: SMRT peptide (EGLVATVKEAGRSIHEIPR) (peptide)
peptide: EGLVATVKEAGRSIHEIPR
notes: also called SMRT control peptide; unlabelled SMRT peptide; source: synthetic peptide, bought: Pepceuticals Ltd
